Data set [1] deals with T1, Elk-ΔA (UniProt P19419 1-253).
T1 sequence: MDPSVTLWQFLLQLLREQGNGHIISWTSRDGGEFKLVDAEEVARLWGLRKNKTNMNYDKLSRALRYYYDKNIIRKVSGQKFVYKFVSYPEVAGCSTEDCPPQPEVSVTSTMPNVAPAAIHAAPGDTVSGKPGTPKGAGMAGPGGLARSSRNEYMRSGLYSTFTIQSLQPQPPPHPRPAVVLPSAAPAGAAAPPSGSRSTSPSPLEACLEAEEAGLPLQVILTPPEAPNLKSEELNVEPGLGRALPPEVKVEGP
Put plainly: EMSA. A general note: A gel shift assay detects complexes by their altered migration in electrophoresis.

Data set [2] has as its target T2, Elk-ets (HA-tagged ETS domain) (UniProt P19419 5-86).
T2 sequence: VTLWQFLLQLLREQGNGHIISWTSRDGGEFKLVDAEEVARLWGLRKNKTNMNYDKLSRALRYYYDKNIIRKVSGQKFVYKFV
Put plainly: EMSA.

The target in data set [3] is T3, ets-DM (HA-Elk-ets DNA-binding mutant) (UniProt P19419 5-86, R65A;Y66F).
T3 sequence: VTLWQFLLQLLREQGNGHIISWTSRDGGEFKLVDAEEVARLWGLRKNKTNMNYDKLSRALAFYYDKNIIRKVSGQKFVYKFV
In words: native gel EMSA.

The target of data set [4] is PU.1-ets (HA-tagged ETS domain) (UniProt P17947 170-253). In words: EMSA.
Data set [5] addresses T2, Elk-ets (HA-tagged ETS domain). In words: native gel EMSA.

B1: E74 duplex (dsDNA)
DNA 1: CTAGAGCTGAATAACCGGAAGTAACTCAT
DNA 2: CTAGATGAGTTACTTCCGGTTATTCAGCT
Regarding B1, the binding result is on record as “binds” in data set [1], “binds” in data set [2], “no binding” in data set [3] and “binds” in data set [4].

B2: CON control duplex (dsDNA)
DNA 1: AGACCAACATGAATTACGACAGGCTCAGCCGGG
DNA 2: CCCGGCTGAGCCTGTCGTAATTCATGTTGGTCT
For B2, in data set [5], the binding result is “no binding”.

The values above are taken from publication PMC3159454.
